# Results taken from PMC3609803, “SipB-SipC Complex Is Essential for Translocon Formation” (PLoS ONE, 2013).
# B1: His-SipC-N (domain or fragment)
# chain: MLISNVGINPAAYLNNHSVENSSQTASQSVSAKDILNSIGISSSKVSDLGLSPTLSAPAPGVLTQTPGTITSFLKASIQNTDMNQDLNALANNVTTKANEVVQTQLREQQAEVGKFFDIS
# notes: N-terminal region of SipC of Salmonella enterica serovar Typhimurium; also called wild-type SipC-N; source: His-tagged recombinant protein, purified
# Target: T1, GST-SicA (Salmonella enterica serovar Typhimurium, UniProt P69066 1-165)
# T1 construct: SicA, the chaperone for SipC, Salmonella enterica serovar Typhimurium; source: GST-tagged recombinant protein, purified
# T1 sequence (P69066 whole entry): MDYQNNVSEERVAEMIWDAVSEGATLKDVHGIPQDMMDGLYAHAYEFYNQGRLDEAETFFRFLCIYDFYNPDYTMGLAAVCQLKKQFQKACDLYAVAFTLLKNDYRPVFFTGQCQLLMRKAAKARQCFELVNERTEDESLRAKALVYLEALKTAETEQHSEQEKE
# Assay: pull-down; purified His-SipC-N and derivatives immobilised on Ni-NTA beads, 1 hr at 4°C; GST or GST-SicA added, 2 hrs at 4°C; washed four times in PBS with 1% NP-40; blotted with anti-His and anti-GST
# Details: both partners purified
binder,measurement,value
B1,binding result,binds
